This is an account of results in US10000743B2, “2-deoxy-scyllo-inosose reductase” (Asahi Kasei Chemicals Corporation, priority 2013, dated 2018).

Marks after values point to notes of the source that are not given here.

The target in data set [1] is T1, DOI reductase from Burkholderia terrae strain AKC-020 (Paraburkholderia terrae, UniProt A0ABM7TVX3). The data set is described as follows: Km value and Vmax of purified DOI reductase. The data set is classed as biochemical.
Experimental: (§1) The protein concentration of the enzyme solution was also measured by the Bradford method.
Data set [2] has as its target T1, DOI reductase from Burkholderia terrae strain AKC-020. The data set is described as follows: Substrate specificity of purified DOI reductase (oxidation reaction, NAD+ to NADH at 340 nm). The class given is biochemical. As to conditions: substrate 5 mM. As to the method:
A quantity of 10 μL of enzyme solution was added to 980 μL of 0.1 M buffer containing 1.0 μmol of NAD^+ and prewarmed for five minutes at 25° C. A quantity of 10 μL of each 0.1 M substrate was added and mixed immediately. The rate of increase in the absorbance (wavelength 340 nm) over two minutes was measured by spectrophotometer, and the activity by each substrate was compared. […] In the table, N.D. means that no reaction could be detected.

Data set [3] can be described thus: Conversion of DOI to quercitol by enzymes from recombinant E. coli (HPLC, diastereomer excess). As to conditions: for Conversion rate: DOI to quercitol; for (−)-Vibo-quercitol produced: conversion of DOI; for Diastereomer excess of scyllo-quercitol: DOI converted to scyllo-quercitol. Here is the method: Specifically, DOI conversion was carried out using a coenzyme regeneration system by formate dehydrogenase (FDH hereinafter, Roche Diagnostics Inc., product no. 244678). […] The reaction solution was incubated for three hours while shaking at 30° C.

Data set [4] in a line: DOI reducing activity of recombinantly expressed inositol dehydrogenases/DOIR. The class given is biochemical. As to conditions: for DOI reducing activity: expressed in E. coli BL21 (DE3); for catalytic activity to convert 2-deoxy-scyllo-inosose into (−)-vibo-quercitol / reduction of DOI (in words): recombinant expression in Escherichia coli. Here is the method:
Specifically, the reaction solution composition other than DOI (990 μL) was taken by cuvette and prewarmed for approximately 5 minutes at 25° C. After adding DOI solution (10 μL) and mixing quickly, the rate of decrease in the absorbance (wavelength […]) over two minutes was measured using a spectrophotometer (Shimadzu, UV-2550) regulated to 25° C. with water as the control, and the decrease in absorbance per minute was calculated. Next, each strain was evaluated by calculating the U per mL of crude enzymatic solution, defining the amount that decreases [sic; converts]
Furthermore, inositol dehydrogenase (Sf-Idh) from Sinorhizobium fredii USDA191 is an enzyme that oxidizes myo-inositol, and iolX (Bs-IolX) from Bacillus subtilis 168 is reported to encode an enzyme showing activity on scyllo-inositol. In addition, iolW (Bs-IolW) is said to be an NADPH-dependent inositol dehydrogenase. These six genes were introduced into an expression vector Pet21B(+) (Merck), and expressed by E. coli BL21 (DE3).

Substrate in data set [5]: O[C@@H]1[C@@H](O)[C@H](O)C[C@@H](O)[C@H]1O
The data set is described as follows: purified protein, by the assay type. As to conditions: other: oxidation reaction.

Substrate in data set [6]: O=C1C[C@@H](O)[C@H](O)[C@@H](O)[C@@H]1O
The data set can be described thus: Km value and Vmax of purified DOI reductase. The data set is classed as biochemical, Burkholderia terrae. Conditions: other: reduction reaction.
Experimental: as §1

Substrate in data set [7]: NC(=O)c1ccc[n+]([C@@H]2O[C@H](COP(=O)(O)OP(=O)(O)OC[C@H]3O[C@@H](n4cnc5c(N)ncnc54)[C@H](O)[C@@H]3O)[C@@H](O)[C@H]2O)c1
The data set is described as follows: Km value and Vmax of purified DOI reductase. The data set is classed as biochemical, Burkholderia terrae. Conditions: other: 0.1M Gly-NaOH, pH 9.0.
Experimental: as §1

A short description of data set [8]: Optimum pH of purified DOI reductase (DOI reduction, NADH decrease at 340 nm). The class given is biochemical. As to conditions: buffers of each pH, 25° C. Here is the method: A quantity of 10 μL of 0.1 M DOI was added and mixed immediately. The rate of decrease in the absorbance (wavelength 340 nm) over two minutes was measured by spectrophotometer, and the activity was compared at each pH.

The mark [9] stands for this setting: activity relative to the culture broth.

As for `O[C@@H]1[C@@H](O)[C@H](O)C[C@@H](O)[C@H]1O` [(−)-vibo-quercitol, (1R,2R,4S,5R)-cyclohexane-1,2,3,4,5-pentol], in data set [1] (oxidation reaction), the “Vmax to (−)-vibo-quercitol” value was found to be 16.45 U/mg. Also, the “Substrate specificity (oxidation reaction)” value is listed as 8.21 U/mg in data set [2] (pH 8.0, 25° C.) and 13.93 U/mg in data set [2] (pH 9.0, 25° C.).
For the molecule `O=C1C[C@@H](O)[C@H](O)[C@@H](O)[C@@H]1O` [DOI, 2-deoxy-scyllo-inosose], the “Vmax to DOI” value in data set [1] (reduction reaction) stood at 116.28 U/mg.
`O[C@H]1[C@H](O)[C@@H](O)[C@H](O)[C@@H](O)[C@H]1O` [Myo-inositol]: the “Substrate specificity (oxidation reaction)” value in data set [2] (pH 8.0, 25° C.) is recorded as 3.21 U/mg; in data set [2] (pH 9.0, 25° C.), 5.71 U/mg.

B1: Ps-Idh: inositol dehydrogenase from Pseudomonas synxantha BG33R, homology with DOIR 68% (protein)
chain: MLRIAVLGAGRIAKIHAANVAAHPNATLVLVADPWREGVDALSTQLGCEAAYDCAAVLNRKDIDAVVIGTPTDTHIDLLLAAVAQGKAVLCEKPIDLDIAKARSAAQTVERQGGKVMLGFNRRFDPDMLRLRQALDAGQIGAVRQVIITSRDPGLAPREYLEHSGGILRDMTIHDFDTARHLLGEEPVQVSAFASRLVDPSLEQIDDYDSVMVLLRTASGKQCHINCCRQAVYGYDQRVEVSGASGVLLTDNHRPSTLRHWSAEHTEALEPLQHFFLERYADAYRNELMQFVDALNEGRELPTGMRDGLYALHLADCALESVKTGRSVAVCYDR
modifications: Pseudomonas synxantha BG33R
B1: in data set [3] (from recombinant E. coli), the Conversion rate was not below 99% and the “(−)-Vibo-quercitol produced” value is 9.9 mM. The DOI reducing activity in data set [4] (setting [9]) stood at 9.8 U/Ml culture.

B2: DOI reductase from Burkholderia terrae strain AKC-020 (Paraburkholderia terrae) (protein)
chain: MIRIAVLGAGRIGRIHAGNVAASPNAQLVVVADPVESAAKSLATRLGCEASTDPAGVLERKDIDAVVIGTPTDTHITFMLEAVRRGKAVLCEKPIDLDMEKSLAAANEVERQRGRVMLAFNRRFDPTSQAFRNAIDAGDVGEVRQVIISSRDPGMPPRDYVEHSGGIFRDMVIHDLDMARWLLGEEPVEVMAMASRLIDESLEKLTDFDTVMVQLRTASGKQCHINCCREAVYGYDQRMEVSGSKGMLLQENLRPSTIRRWSKEATDVREPLLNFFLERYEAAYKAELEAFVDALNTNSPLPTSVQDGLKALRLADAALESALSGKAVKV
A word on the Km: it is the concentration of substrate that gives half-maximal velocity. As for B2, the Km in data set [5] is 1.60 mM, 16.45 U/mg mM; in data set [6], 0.41 mM, 116.28 U/mg mM; in data set [7], 0.11 mM (0.1M Gly-NaOH, pH 9.0) mM.

B3: DOIR: 2-deoxy-scyllo-inosose reductase from Burkholderia terrae strain AKC-020, amino acid sequence SEQ ID NO: 2 (protein)
chain: B2 chain
modifications: Burkholderia terrae AKC-020
Consider B3, for which, in data set [3] (from recombinant E. coli), the Conversion rate was not below 99% and the “(−)-Vibo-quercitol produced” value is given as 9.9 mM. The “pH of maximum activity” value in data set [8] is reported as 7.0-9.0. The DOI reducing activity in data set [4] (setting [9]) turned out to be 11.2 U/Ml culture.

B4: Pa-Idh: inositol dehydrogenase from Pantoea sp. At-9b, homology with DOIR 58% (protein)
chain: MKIAVLGAGRIGNVHAMNVASNPNVELVAIADPFIDNAIKLTEKYGGKAVKEPMELIESNAVDAVIIATPTDTHVDLMLSAARNGKAVLCEKPVDLNLERAEVACAELKQCDVPVMIAFNRRFDPSAAEMHSAIAKGEVGELHQIMISSRDPGFASMDYLRHSGGIFRDMTIHDFDMARWLLGEEPVQVFASASRMLEPALEPLNDFDTVMVQMITKSGKQCHINCSRQAVYGHDQRIEAYGSAGMLLNDNLRPSTLRRFNKSATDARVPLVHFFLERYADAYRMELEAFISAVKHAKPVPVTPYDGYMALKLADCAQQSAETGLPVQL
modifications: Pantoea sp. At-9b
B4: in data set [3] (from recombinant E. coli), the Conversion rate is not below 99% and the “(−)-Vibo-quercitol produced” value turned out to be 9.9 mM. Moreover, in data set [4] (setting [9]), the DOI reducing activity is reported as 8.4 U/Ml culture.

B5: Bh-IolG: inositol dehydrogenase from Burkholderia sp. SJ98, homology with DOIR 79% (protein)
chain: MTRIAVLGAGRIGKIHAANVASNSDAKLVVVADPFEGAANSLAEKLGCEASTDCLSVIERDDVDAVVIGTPTDTHIQFMLHAVSKGKAVLCEKPIDLDMKKSLAAAKEVERHDGRVMLAFNRRFDPTSQAFRKAIDDGEVGDVRQVVITSRDPGMPPREYVTHSGGIFRDMVIHDLDLARWFLGEEPIEVMATGSRLVEPSLAEVPDFDTVMLQLRTESGKQCHINCCREAVYGYDQRLEVFGSRGMLLQENLRPSTIRRWSASATDAREPLLNFFLERYEAAYKTELTAFVEALRTNTTFPTSVADGLKALRLADCALESAMSCRSVKV
modifications: Burkholderia sp. SJ98
For the molecule B5, in data set [3] (from recombinant E. coli), the Conversion rate was not below 99% and the “(−)-Vibo-quercitol produced” value was found to be 9.9 mM. Further, the DOI reducing activity in data set [4] (setting [9]) was 11.7 U/Ml culture.

B6: BS-IolX: iolX enzyme from Bacillus subtilis 168, reported activity on scyllo-inositol, homology with DOIR 36% (protein, UniProt P40332 1-342, looked up)
scyllo-inositol …: MEHQVRCAVLGLGRLGYYHAKNLVTSVPGAKLVCVGDPLKGRAEQVARELGIEKWSEDPYEVLEDPGIDAVIIVTPTSTHGDMIIKAAENGKQIFVEKPLTLSLEESKAASEKVKETGVICQVGFMRRFDPAYADAKRRIDAGEIGKPIYYKGFTRDQGAPPAEFIKHSGGIFIDCSIHDYDIARYLLGAEITSVSGHGRILNNPFMEQYGDVDQALTYIEFDSGAAGDVEASRTSPYGHDIRAEVIGTEGSIFIGTLRHQHVTILSAKGSSFDIIPDFQTRFHEAYCLELQHFAECVRNGKTPIVTDIDATINLEVGIAATNSFRNGMPVQLDVKRAYTGM
For the molecule B6, the “Remaining DOI” value in data set [3] was determined as 0.4 mM. Further, the “Diastereomer excess of scyllo-quercitol” value in data set [3] (from recombinant E. coli) was not below 99%; in data set [3] (from recombinant E. coli, listed as Bs-IolX), 99%. For the same molecule, the Conversion rate in data set [3] (from recombinant E. coli) is 96%. Moreover, the “scyllo-quercitol produced (printed in the (−)-vibo-quercitol column, footnote *)” value in data set [3] (from recombinant E. coli, converted into scyllo-quercitol) is reported as 9.6* mM. The DOI reducing activity in data set [4] (setting [9]) turned out to be 0.13 U/Ml culture. In addition, the “catalytic activity to convert 2-deoxy-scyllo-inosose into (−)-vibo-quercitol / reduction of DOI (in words)” value in data set [4] was “low ability”.

B7: BS-IolW: NADPH-dependent inositol dehydrogenase from Bacillus subtilis 168, homology with DOIR 27% (protein, UniProt O32223 1-358, looked up)
scyllo-inositol …: MITLLKGRRKVDTIKVGILGYGLSGSVFHGPLLDVLDEYQISKIMTSRTEEVKRDFPDAEVVHELEEITNDPAIELVIVTTPSGLHYEHTMACIQAGKHVVMEKPMTATAEEGETLKRAADEKGVLLSVYHNRRWDNDFLTIKKLISEGSLEDINTYQVSYNRYRPEVQARWREKEGTATGTLYDLGSHIIDQTLHLFGMPKAVTANVMAQRENAETVDYFHLTLDYGKLQAILYGGSIVPANGPRYQIHGKDSSFIKYGIDGQEDALRAGRKPEDDSWGADVPEFYGKLTTIRGSDKKTETIPSVNGSYLTYYRKIAESIREGAALPVTAEEGINVIRIIEAAMESSKEKRTIMLEH
With B7, in data set [3], the “Remaining DOI” value was determined as 9.9 mM. Also, the DOI reducing activity in data set [4] (using NADPH as coenzyme) is recorded as 0.69) (using NADPH as coenzyme) U/Ml culture. In data set [4], the “catalytic activity to convert 2-deoxy-scyllo-inosose into (−)-vibo-quercitol / reduction of DOI (in words)” value is listed as “low ability”.
